Here are results for 38 sequences from the supplement of paper PMC10567573.

± gives the standard deviation.

A short description of this series: protein stability index of a GFP-peptide fusion (GPS, HEK-293T) (PSI 1-6); higher = more stable. Particulars: c terminus: a fixed tail appended.
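Also: 24-mer peptide tiles fused after GFP, lentivirally expressed, FACS-sorted into six equal bins by GFP/DsRed ratio, decoded by Illumina sequencing, PSI is the read-weighted mean bin number.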

Turning to WALLCLGLLLPGGGAAWSIGAAPF [EMID1], the protein stability index runs as follows: (treatment: DMSO) 3.54 ± 0.26; (treatment: MLN4924 1 uM, 8 h) 3.22 ± 0.19.
For WCLHVNNWLQVSFTAKHANKVKVL [FSD1] the same measures were 3.04 ± 0.73 and 2.93 ± 0.5.
For WDMNSAPRLVSETAERKQEQKTGT [MFSD9] the same measures were 5.44 ± 0.2 and 5.38 ± 0.13.
Consider WDPACLPLPPPPPAFKSMEVANFY [CEBPB], for which the protein stability index reads like this: (treatment: DMSO) 3.02 ± 0.28; (treatment: MLN4924 1 uM, 8 h) 3.28 ± 0.47.
In the case of WEASSLGLVTAALHMVIVAAFTWA [KMT2E], the protein stability index runs as follows: (treatment: DMSO) 3.44 ± 0.31; (treatment: MLN4924 1 uM, 8 h) 3.16 ± 0.74.
For WFQRQYLSTPDSQSLRCDLIRYIC [INTS3] the same measures were 2.25 ± 0.35 and 2.28 ± 0.44.
On to WGPWGPWGDCSRTCGGGVQFSSRD [ADAMTS4], for which the protein stability index was 2.46 ± 0.36 (treatment: DMSO) and 2.16 ± 0.14 (treatment: MLN4924 1 uM, 8 h).
For WKKQQKCDECGKIFSQSSALILHQ [ZNF396] the same measures were 2.54 ± 0.25 and 2.91 ± 0.49.
For WLLTHLLWFANAHLLSWFSPTIIF [DHCR7] the same measures were 3.36 ± 0.17 and 2.96 ± 0.3.
With WMHTPEALSKHFIPYNAKFLGSTE [GULP1], the protein stability index was determined as 2.27 ± 0.12 (treatment: DMSO) and 2.3 ± 0.16 (treatment: MLN4924 1 uM, 8 h).
The corresponding values for WSLGVIMYEMLIGYPPFCSETPQE [STK38L] are 2.85 ± 0.59 and 2.52 ± 0.44.
For WSQPITTGKAPSPRAAHACATVGN [KLHDC2] the same measures were 3.84 ± 0.3 and 3.92 ± 0.2.
For WTMQAYERNFWDPSPQLDTQQEIK [WDR41] the same measures were 3.16 ± 0.19 and 3.46 ± 0.47.
In the case of YAKKESDLNGAQIKLREYEAALNS [LMNB1], the protein stability index came to 4.07 ± 0.2 (treatment: DMSO) and 4.07 ± 0.3 (treatment: MLN4924 1 uM, 8 h).
The corresponding values for YARYSLKSIDPVLMAPTCVFLASK [CCNC] are 2.16 ± 0.65 and 2 ± 0.3.
For YDFMNSAFSPIVILTERVSLPFKP [MIA2] the same measures were 2.22 ± 0.62 and 2.17 ± 0.18.
The corresponding values for YDPRFNSWIQLPPMQERRASFYAC [KLHL14] are 2.14 ± 0.27 and 2.22 ± 0.17.
Consider YDYPEEEQLSGAGYRVSAALEEAD [EID1], for which the protein stability index worked out at 5.38 ± 0.31 (treatment: DMSO) and 5.22 ± 0.32 (treatment: MLN4924 1 uM, 8 h).
The corresponding values for YEAGVLAFYDVTGGMSHLHTFRAT [TRIM14] are 2.47 ± 0.45 and 2.07 ± 0.45.
On to YFLRGSLPWQGLKADTLKERYQKI [CSNK1G3], for which the protein stability index (treatment: DMSO) is 2.17 ± 0.14 and the protein stability index (treatment: MLN4924 1 uM, 8 h) amounted to 2.14 ± 0.39.
For YHRETEGEEQSQYMHVGSCQHLSS [KCNA3] the same measures were 4.09 ± 0.32 and 4.71 ± 0.47.
In the case of YICPDYQSYFKTIEDFQQKILLTK [KRT36], the protein stability index is 2.33 ± 0.59 (treatment: DMSO) and 2.13 ± 0.28 (treatment: MLN4924 1 uM, 8 h).
For YIHFFHTVLKQIAPEYFEKNEPYL [DENND6A] the same measures were 1.96 ± 0.5 and 2.77 ± 0.53.
As to YKFDPKTKRILTLQKANSWFNCRK [MMP1], the protein stability index reads like this: (treatment: DMSO) 2.67 ± 0.27; (treatment: MLN4924 1 uM, 8 h) 2.54 ± 0.28.
For YLTVKVWDLNMENRPIETYQVHDY [PPP2R2B] the same measures were 2.25 ± 0.032 and 2.31 ± 0.2.
For YNVYSTFQSHEPEFDYLKSLEIEE [PPP2R2B] the same measures were 3.86 ± 0.2 and 3.92 ± 0.26.
Consider YQQIKAGAYDFPSPEWDTVTPEAK [CAMK2B], for which the protein stability index runs as follows: (treatment: DMSO) 3.89 ± 0.34; (treatment: MLN4924 1 uM, 8 h) 4.15 ± 0.32.
The corresponding values for YQQLKLEGPGEQETKLDLISKGEE [SLC29A1] are 5.25 ± 0.28 and 5.28 ± 0.13.
The corresponding values for YRAITSAYYRGAVGALLVYDIAKH [RAB11A] are 2.43 ± 0.51 and 2.16 ± 0.33.
For YRALLSGSNPPYLPFRDASFGNCT [CDC14A] the same measures were 2.44 ± 0.091 and 2.49 ± 0.17.
In the case of YRSPEPDPYLSYRWKRRRSYSREH [CLK3], the protein stability index was 3.55 ± 0.33 (treatment: DMSO) and 3.71 ± 0.12 (treatment: MLN4924 1 uM, 8 h).
The corresponding values for YRYCCKLNKKLKSYSLSRKKIVHY [CDC14A] are 2.27 ± 0.38 and 2.25 ± 0.53.
Consider YSKESIIFGASSVDFSLSGRLLFA [GNB5], for which the protein stability index by setting is: (treatment: DMSO) 2.84 ± 0.74; (treatment: MLN4924 1 uM, 8 h) 2.78 ± 0.68.
The corresponding values for YSLAPNTPINQNVSLHQASLGGCS [NFE2L1] are 3.54 ± 0.1 and 3.65 ± 0.18.
Take YSQKESGHSNWLGDPEEPLTGFSW [ATL3]: the protein stability index came out at 1.92 ± 0.44 (treatment: DMSO) and 2.78 ± 0.1 (treatment: MLN4924 1 uM, 8 h).
For YSYLVLLFPVFLATDYLRYKPVVL [SLC19A2] the same measures were 3.56 ± 0.34 and 3.01 ± 0.51.
For YTFTDTFTEKLWPLFYPGIRAGRK [TRIM39] the same measures were 2.69 ± 0.84 and 2.46 ± 0.5.
For YTSAGTYGLDSVKKKCLEWLLNNL [GMCL1] the same measures were 2.17 ± 0.19 and 2.16 ± 0.26.
